Test results published in US20090191228A1.
Each block holds one substance with its values, some of them ahead of it.

Legend:
[1] = biological target: nOVA (non-treated ovalbumin, 1 mg/ml in PBS) (chicken) (UniProt P01012); experiment: ELISA, immobilized OVA forms, Fn F4-5 in solution; normalized to nOVA
[2] = biological target: cdH5-0 (dH5-0 supernatant after 10 min at 16,000-18,000*g) (influenza virus H5N1 strain A/Vietnam/1203/04); experiment: ELISA, immobilized H5 forms, Fn F4-5 in solution; normalized to cdH5-0
[3] = biological target: dH5-I (cdH5-0 misfolded by heat cycling at pH 7) (influenza virus H5N1 strain A/Vietnam/1203/04); experiment: as above
[4] = biological target: dH5-II (cdH5-0 misfolded by heat cycling at pH 2) (influenza virus H5N1 strain A/Vietnam/1203/04); experiment: as above
[5] = biological target: dH5-III (cdH5-0 incubated about 16 h at 47.5 C) (influenza virus H5N1 strain A/Vietnam/1203/04); experiment: as above
[6] = biological target: fdH5-0 (ultrafiltrated dH5-0, flow-through of a 1,000 kDa cut-off filter) (influenza virus H5N1 strain A/Vietnam/1203/04); experiment: as above
[7] = biological target: dOVA-1 (ovalbumin misfolded by HCl treatment, 40 min 37 C, neutralized) (chicken) (UniProt P01012); experiment: ELISA, immobilized OVA forms
[8] = biological target: cdH5-0 (dH5-0 supernatant after 10 min at 16,000-18,000*g) (influenza virus H5N1 strain A/Vietnam/1203/04)
[9] = biological target: dH5-II (cdH5-0 misfolded by heat cycling at pH 2) (influenza virus H5N1 strain A/Vietnam/1203/04)
[10] = biological target: fdH5-0 (ultrafiltrated dH5-0, flow-through of a 1,000 kDa cut-off filter) (influenza virus H5N1 strain A/Vietnam/1203/04)

Substance: fourth and fifth finger domain of fibronectin (Fn F4-5) (from UniProt P02751 183-275)
Normalized affinity, kD (%) [1]: 100%
Normalized affinity, kD (%) [2]: 100%
Normalized affinity, kD (%) [3]: 0%
Normalized affinity, kD (%) [4]: 88%
Normalized affinity, kD (%) [5]: 6%
Normalized affinity, kD (%) [6]: 69%

Scaled antibody binding (relative affinity kD, a.u.) [7]: 20.8 a.u.
Substance: monoclonal anti-OVA IgG (A6075, Sigma) (antibody)

Substance: tissue type plasminogen activator (tPA) (from UniProt P00750 36-562) (enzyme)
Bmax [8]: 0.36
Kd [8]: 102 nM
Bmax [9]: 0.07
Kd [9]: 19 nM
Bmax [10]: 0.37
Kd [10]: 342 nM
